Data: US20190040102A1 (CDRD VENTURES, published 2019)
Starred links: 1 amine or outer side, 2 acyl side, 3 side chain; linkers in the order of their positions; H or OH if unused. Positions of bridges follow the written chain, without caps; N, C: chain ends. Non-standard residues stand in square brackets, D forms with d. *: point of attachment. Tyr(Me) = 4-OMe-Phe, COc1ccc(C[C@H](N[*:1])C(=O)[*:2])cc1; dPhe(4-CONH2) = NC(=O)c1ccc(C[C@@H](N)C(=O)O)cc1; dTyr(Me) = COc1ccc(C[C@@H](N[*:1])C(=O)[*:2])cc1; Phe(4-Cl) = N[C@@H](Cc1ccc(Cl)cc1)C(=O)O; dPhe(4-Cl) = N[C@H](Cc1ccc(Cl)cc1)C(=O)O; Tle = CC(C)(C)[C@H](N)C(=O)O; Bz = O=C(c1ccccc1)*; βAla = NCCC(=O)O

Molecular target: somatostatin receptor type 2 (SSTR2) (UniProt P30874 1-369)
Sequence (P30874 whole entry): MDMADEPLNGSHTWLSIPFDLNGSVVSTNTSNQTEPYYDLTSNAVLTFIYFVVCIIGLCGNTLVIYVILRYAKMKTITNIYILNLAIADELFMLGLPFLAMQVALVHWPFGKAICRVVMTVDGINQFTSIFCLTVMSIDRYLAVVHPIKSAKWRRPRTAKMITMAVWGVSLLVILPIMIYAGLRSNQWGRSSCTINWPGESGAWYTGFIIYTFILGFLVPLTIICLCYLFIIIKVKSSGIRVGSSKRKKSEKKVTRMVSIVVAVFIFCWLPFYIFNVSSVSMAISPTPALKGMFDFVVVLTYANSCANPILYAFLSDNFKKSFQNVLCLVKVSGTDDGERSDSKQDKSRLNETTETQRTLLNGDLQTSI
Assay: cell-based or functional assay

IC50 (PathHunter β-Arrestin, antagonist mode)	Binder
24.4 nM	XXFXKTCX (HELM PEPTIDE1{[N[C@@H](Cc1ccc(Cl)cc1)C(=O)[*:2]].[dC].F.[NC(=O)c1ccc(C[C@@H](N[*:1])C(=O)[*:2])cc1].K.T.C.[dF].[am]}$PEPTIDE1,PEPTIDE1,2:R3-7:R3$$$V2.0; SMILES C[C@@H](O)[C@@H]1NC(=O)[C@H](CCCCN)NC(=O)[C@@H](Cc2ccc(C(N)=O)cc2)NC(=O)[C@H](Cc2ccccc2)NC(=O)[C@H](NC(=O)[C@@H](N)Cc2ccc(Cl)cc2)CSSC[C@@H](C(=O)N[C@H](Cc2ccccc2)C(N)=O)NC1=O) [Compound 41: H-Cpa-cyclo[DCys-Phe-D-(4-carbamoyl)Phe-Lys-Thr-Cys]-DPhe-NH2]
9.84 nM	H-[Phe(4-Cl)][dC]Y[dPhe(4-CONH2)]KTC[dPhe(4-Cl)]-NH2 (disulfide 2-7; SMILES C[C@@H](O)[C@@H]1NC(=O)[C@H](CCCCN)NC(=O)[C@@H](Cc2ccc(C(N)=O)cc2)NC(=O)[C@H](Cc2ccc(O)cc2)NC(=O)[C@H](NC(=O)[C@@H](N)Cc2ccc(Cl)cc2)CSSC[C@@H](C(=O)N[C@H](Cc2ccc(Cl)cc2)C(N)=O)NC1=O) [Compound 42: H-Cpa-cyclo[DCys-Tyr-D-(4-carbamoyl)Phe-Lys-Thr-Cys]-4-Cl-D-Phe-NH2]
10.6 nM	XXYXKSCX (HELM PEPTIDE1{[N[C@@H](Cc1ccc(Cl)cc1)C(=O)[*:2]].[dC].Y.[NC(=O)c1ccc(C[C@@H](N[*:1])C(=O)[*:2])cc1].K.S.C.[dY].[am]}$PEPTIDE1,PEPTIDE1,2:R3-7:R3$$$V2.0; SMILES NCCCC[C@@H]1NC(=O)[C@@H](Cc2ccc(C(N)=O)cc2)NC(=O)[C@H](Cc2ccc(O)cc2)NC(=O)[C@H](NC(=O)[C@@H](N)Cc2ccc(Cl)cc2)CSSC[C@@H](C(=O)N[C@H](Cc2ccc(O)cc2)C(N)=O)NC(=O)[C@H](CO)NC1=O) [Compound 37: H-Cpa-cyclo[DCys-Tyr-D-(4-carbamoyl)Phe-Lys-Ser-Cys]-DTyr-NH2]
10.7 nM	H-[Phe(4-Cl)][dC]Y[dPhe(4-CONH2)]KTC[dTyr(Me)]-NH2 (disulfide 2-7; SMILES COc1ccc(C[C@@H](NC(=O)[C@@H]2CSSC[C@@H](NC(=O)[C@@H](N)Cc3ccc(Cl)cc3)C(=O)N[C@@H](Cc3ccc(O)cc3)C(=O)N[C@H](Cc3ccc(C(N)=O)cc3)C(=O)N[C@@H](CCCCN)C(=O)N[C@@H]([C@@H](C)O)C(=O)N2)C(N)=O)cc1) [Compound 44: H-Cpa-cyclo[DCys-Tyr-D-(4-carbamoyl)Phe-Lys-Thr-Cys]-4-OMe-D-Phe-NH2]
2.86 nM	H-[βAla][Phe(4-Cl)][dC]Y[dPhe(4-CONH2)]K(Me)TC[dY]-NH2 (disulfide 3-8; SMILES CNCCCC[C@@H]1NC(=O)[C@@H](Cc2ccc(C(N)=O)cc2)NC(=O)[C@H](Cc2ccc(O)cc2)NC(=O)[C@H](NC(=O)[C@H](Cc2ccc(Cl)cc2)NC(=O)CCN)CSSC[C@@H](C(=O)N[C@H](Cc2ccc(O)cc2)C(N)=O)NC(=O)[C@H]([C@@H](C)O)NC1=O) [Compound 49: H-βAla-Cpa-cyclo[DCys-Tyr-DPhe(4-CONH2)-Lys(Me)-Thr-Cys]-DTyr-NH2]
43.4 nM	H-[Phe(4-Cl)][dC]Y[dPhe(4-CONH2)]K[Tle]C[dY]-NH2 (disulfide 2-7; SMILES CC(C)(C)[C@@H]1NC(=O)[C@H](CCCCN)NC(=O)[C@@H](Cc2ccc(C(N)=O)cc2)NC(=O)[C@H](Cc2ccc(O)cc2)NC(=O)[C@H](NC(=O)[C@@H](N)Cc2ccc(Cl)cc2)CSSC[C@@H](C(=O)N[C@H](Cc2ccc(O)cc2)C(N)=O)NC1=O) [Compound 34: H-Cpa-cyclo[DCys-Tyr-D-4-(carbamoyl)Phe-Lys-tBu-Gly-Cys]-DTyr-NH2]
28.7 nM	H-[Phe(4-Cl)][dC][Phe(4-Cl)][dPhe(4-CONH2)]KTC[dY]-NH2 (disulfide 2-7; SMILES C[C@@H](O)[C@@H]1NC(=O)[C@H](CCCCN)NC(=O)[C@@H](Cc2ccc(C(N)=O)cc2)NC(=O)[C@H](Cc2ccc(Cl)cc2)NC(=O)[C@H](NC(=O)[C@@H](N)Cc2ccc(Cl)cc2)CSSC[C@@H](C(=O)N[C@H](Cc2ccc(O)cc2)C(N)=O)NC1=O) [Compound 36: H-Cpa-cyclo[DCys-Cpa-D-(4-carbamoyl)Phe-Lys-Thr-Cys]-DTyr-NH2]
35.9 nM	XXFXKTCX (HELM PEPTIDE1{[N[C@@H](Cc1ccc(Cl)cc1)C(=O)[*:2]].[dC].F.[NC(=O)c1ccc(C[C@@H](N[*:1])C(=O)[*:2])cc1].K.T.C.[dY].[am]}$PEPTIDE1,PEPTIDE1,2:R3-7:R3$$$V2.0; SMILES C[C@@H](O)[C@@H]1NC(=O)[C@H](CCCCN)NC(=O)[C@@H](Cc2ccc(C(N)=O)cc2)NC(=O)[C@H](Cc2ccccc2)NC(=O)[C@H](NC(=O)[C@@H](N)Cc2ccc(Cl)cc2)CSSC[C@@H](C(=O)N[C@H](Cc2ccc(O)cc2)C(N)=O)NC1=O) [Compound 35: H-Cpa-cyclo[DCys-Phe-D-(4-carbamoyl)Phe-Lys-Thr-Cys]-DTyr-NH2]
16.2 nM	XXYXKTCX (HELM PEPTIDE1{[N[C@@H](Cc1ccc(Cl)cc1)C(=O)[*:2]].[dC].Y.[NC(=O)c1ccc(C[C@@H](N[*:1])C(=O)[*:2])cc1].K.T.C.[dF].[am]}$PEPTIDE1,PEPTIDE1,2:R3-7:R3$$$V2.0; SMILES C[C@@H](O)[C@@H]1NC(=O)[C@H](CCCCN)NC(=O)[C@@H](Cc2ccc(C(N)=O)cc2)NC(=O)[C@H](Cc2ccc(O)cc2)NC(=O)[C@H](NC(=O)[C@@H](N)Cc2ccc(Cl)cc2)CSSC[C@@H](C(=O)N[C@H](Cc2ccccc2)C(N)=O)NC1=O) [Compound 40: H-Cpa-cyclo[DCys-Tyr-D-(4-carbamoyl)Phe-Lys-Thr-Cys]-DPhe-NH2]
56 nM	XXYXKVCX (HELM PEPTIDE1{[N[C@@H](Cc1ccc(Cl)cc1)C(=O)[*:2]].[dC].Y.[NC(=O)c1ccc(C[C@@H](N[*:1])C(=O)[*:2])cc1].K.V.C.[dY].[am]}$PEPTIDE1,PEPTIDE1,2:R3-7:R3$$$V2.0; SMILES CC(C)[C@@H]1NC(=O)[C@H](CCCCN)NC(=O)[C@@H](Cc2ccc(C(N)=O)cc2)NC(=O)[C@H](Cc2ccc(O)cc2)NC(=O)[C@H](NC(=O)[C@@H](N)Cc2ccc(Cl)cc2)CSSC[C@@H](C(=O)N[C@H](Cc2ccc(O)cc2)C(N)=O)NC1=O) [Compound 33: H-Cpa-cyclo[DCys-Tyr-D-4-(carbamoyl)Phe-Lys-Val-Cys]-DTyr-NH2]

Continued, binder first:

Binder	IC50 (PathHunter β-Arrestin, antagonist mode)
H-[Phe(4-Cl)][dC][Tyr(Me)][dPhe(4-CONH2)]KTC[dY]-NH2 (disulfide 2-7; SMILES COc1ccc(C[C@@H]2NC(=O)[C@H](NC(=O)[C@@H](N)Cc3ccc(Cl)cc3)CSSC[C@@H](C(=O)N[C@H](Cc3ccc(O)cc3)C(N)=O)NC(=O)[C@H]([C@@H](C)O)NC(=O)[C@H](CCCCN)NC(=O)[C@@H](Cc3ccc(C(N)=O)cc3)NC2=O)cc1) [Compound 38: H-Cpa-cyclo[DCys-4-OMe-Phe-D-(4-carbamoyl)Phe-Lys-Thr-Cys]-DTyr-NH2]	24.4 nM
Bz-G[Phe(4-Cl)][dC]Y[dPhe(4-CONH2)]K(Me)TC[dY]-NH2 (disulfide 3-8; SMILES CNCCCC[C@@H]1NC(=O)[C@@H](Cc2ccc(C(N)=O)cc2)NC(=O)[C@H](Cc2ccc(O)cc2)NC(=O)[C@H](NC(=O)[C@H](Cc2ccc(Cl)cc2)NC(=O)CNC(=O)c2ccccc2)CSSC[C@@H](C(=O)N[C@H](Cc2ccc(O)cc2)C(N)=O)NC(=O)[C@H]([C@@H](C)O)NC1=O) [Compound 50: Ph(CO)NHCH2(CO)-Cpa-cyclo[D-Cys-Tyr-D-Phe(4-carbamoyl)-Lys(Nε-Me)-Thr-Cys]-D-Tyr-NH2]	1.11 nM
XCYXKTCX (HELM PEPTIDE1{[N[C@@H](Cc1ccc(Cl)cc1)C(=O)[*:2]].C.Y.[NC(=O)c1ccc(C[C@@H](N[*:1])C(=O)[*:2])cc1].K.T.C.[dY].[am]}$PEPTIDE1,PEPTIDE1,2:R3-7:R3$$$V2.0; SMILES C[C@@H](O)[C@@H]1NC(=O)[C@H](CCCCN)NC(=O)[C@@H](Cc2ccc(C(N)=O)cc2)NC(=O)[C@H](Cc2ccc(O)cc2)NC(=O)[C@@H](NC(=O)[C@@H](N)Cc2ccc(Cl)cc2)CSSC[C@@H](C(=O)N[C@H](Cc2ccc(O)cc2)C(N)=O)NC1=O) [Compound 39: H-Cpa-cyclo[Cys-Tyr-D-(4-carbamoyl)Phe-Lys-Thr-Cys]-DTyr-NH2]	> 1000 nM
H-[Phe(4-Cl)][dC][Tyr(Me)][dPhe(4-CONH2)]KTC[dTyr(Me)]-NH2 (disulfide 2-7; SMILES COc1ccc(C[C@@H]2NC(=O)[C@H](NC(=O)[C@@H](N)Cc3ccc(Cl)cc3)CSSC[C@@H](C(=O)N[C@H](Cc3ccc(OC)cc3)C(N)=O)NC(=O)[C@H]([C@@H](C)O)NC(=O)[C@H](CCCCN)NC(=O)[C@@H](Cc3ccc(C(N)=O)cc3)NC2=O)cc1) [Compound 45: H-Cpa-cyclo[DCys-4-OMe-Phe-D-(4-carbamoyl)Phe-Lys-Thr-Cys]-4-OMe-D-Phe-NH2]	14.6 nM
H-[Phe(4-Cl)][dC][Phe(4-Cl)][dPhe(4-CONH2)]K(Me)TC[dY]-NH2 (disulfide 2-7; SMILES CNCCCC[C@@H]1NC(=O)[C@@H](Cc2ccc(C(N)=O)cc2)NC(=O)[C@H](Cc2ccc(Cl)cc2)NC(=O)[C@H](NC(=O)[C@@H](N)Cc2ccc(Cl)cc2)CSSC[C@@H](C(=O)N[C@H](Cc2ccc(O)cc2)C(N)=O)NC(=O)[C@H]([C@@H](C)O)NC1=O) [Compound 48: H-Cpa-cyclo[D-Cys-Cpa-D-Phe(4-carbamoyl)-Lys(Nε-Me)-Thr-Cys]-D-Tyr-NH2]	1.31 nM
H-[Phe(4-Cl)][dC]Y[dPhe(4-CONH2)]K(Me)TC[dPhe(4-Cl)]-NH2 (disulfide 2-7; SMILES CNCCCC[C@@H]1NC(=O)[C@@H](Cc2ccc(C(N)=O)cc2)NC(=O)[C@H](Cc2ccc(O)cc2)NC(=O)[C@H](NC(=O)[C@@H](N)Cc2ccc(Cl)cc2)CSSC[C@@H](C(=O)N[C@H](Cc2ccc(Cl)cc2)C(N)=O)NC(=O)[C@H]([C@@H](C)O)NC1=O) [Compound 46: H-Cpa-cyclo[D-Cys-Tyr-D-Phe(4-carbamoyl)-Lys(Nε-Me)-Thr-Cys]-D-Cpa-NH2]	0.398 nM
H-[Phe(4-Cl)][dC][Phe(4-Cl)][dPhe(4-CONH2)]K(Me)TC[dPhe(4-Cl)]-NH2 (disulfide 2-7; SMILES CNCCCC[C@@H]1NC(=O)[C@@H](Cc2ccc(C(N)=O)cc2)NC(=O)[C@H](Cc2ccc(Cl)cc2)NC(=O)[C@H](NC(=O)[C@@H](N)Cc2ccc(Cl)cc2)CSSC[C@@H](C(=O)N[C@H](Cc2ccc(Cl)cc2)C(N)=O)NC(=O)[C@H]([C@@H](C)O)NC1=O) [Compound 47: H-Cpa-cyclo[D-Cys-Cpa-D-Phe(4-carbamoyl)-Lys(Nε-Me)-Thr-Cys]-D-Cpa-NH2]	1.51 nM
H-[Phe(4-Cl)][dC][Phe(4-Cl)][dPhe(4-CONH2)]KTC[dPhe(4-Cl)]-NH2 (disulfide 2-7; SMILES C[C@@H](O)[C@@H]1NC(=O)[C@H](CCCCN)NC(=O)[C@@H](Cc2ccc(C(N)=O)cc2)NC(=O)[C@H](Cc2ccc(Cl)cc2)NC(=O)[C@H](NC(=O)[C@@H](N)Cc2ccc(Cl)cc2)CSSC[C@@H](C(=O)N[C@H](Cc2ccc(Cl)cc2)C(N)=O)NC1=O) [Compound 43: H-Cpa-cyclo[DCys-4-Cl-Phe-D-(4-carbamoyl)Phe-Lys-Thr-Cys]-4-Cl-D-Phe-NH2]	25.6 nM
